Read-outs that look alike come from different tables or passages of the source.
T1: LptF (E. coli K-12, UniProt P0AF98)
T1 sequence: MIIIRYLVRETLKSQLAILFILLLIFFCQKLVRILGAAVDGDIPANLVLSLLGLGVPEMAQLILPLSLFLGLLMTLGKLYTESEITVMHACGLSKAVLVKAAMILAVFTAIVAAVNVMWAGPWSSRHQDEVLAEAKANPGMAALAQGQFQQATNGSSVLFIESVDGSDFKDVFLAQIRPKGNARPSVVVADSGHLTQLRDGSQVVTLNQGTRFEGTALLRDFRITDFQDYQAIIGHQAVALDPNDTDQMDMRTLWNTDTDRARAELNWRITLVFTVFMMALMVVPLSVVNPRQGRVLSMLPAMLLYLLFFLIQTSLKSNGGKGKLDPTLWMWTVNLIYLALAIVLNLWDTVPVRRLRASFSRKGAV

T2: LptG (E. coli K-12, UniProt P0ADC6)
T2 sequence: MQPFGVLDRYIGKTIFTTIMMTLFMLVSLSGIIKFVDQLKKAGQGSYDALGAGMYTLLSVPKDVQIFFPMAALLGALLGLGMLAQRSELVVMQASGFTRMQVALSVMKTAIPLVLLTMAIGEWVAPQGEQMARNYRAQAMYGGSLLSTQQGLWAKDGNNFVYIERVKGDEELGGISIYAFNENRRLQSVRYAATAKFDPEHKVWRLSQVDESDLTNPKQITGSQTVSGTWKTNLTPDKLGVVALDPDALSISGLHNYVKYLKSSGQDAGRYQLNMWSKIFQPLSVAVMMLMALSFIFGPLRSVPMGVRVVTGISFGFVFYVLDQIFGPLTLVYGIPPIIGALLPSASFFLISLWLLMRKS


Assays:
Assay in all cases: cryo-EM structure
LptF [1] = biological target: T1, LptF
LptG = biological target: T2, LptG
LptF [2] = biological target: T1, LptF; remark: listed apart in the source

Binder | binding result (LptF [1]) | binding result (LptG) | binding result (LptF [2])
LptB (natural protein) MATLTAKNLAKAYKGRRVVEDVSLTVNSGEIVGLLGPNGAGKTTTFYMVVGIVPRDAGNIIIDDDDISLLPLHARARRGIGYLPQEASIFRRLSVYDNLMAVLQIRDDLSAEQREDRANELMEEFHIEHLRDSMGQSLSGGERRRVEIARALAANPKFILLDEPFAGVDPISVIDIKRIIEHLRDSGLGVLITDHNVRETLAVCERAYIVSQGHLIAHGTPTEILQDEHVKRVYLGEDFRL | binds | binds | 
LptC (natural protein) MSKARRWVIIVLSLAVLVMIGINMAEKDDTAQVVVNNNDPTYKSEHTDTLVYNPEGALSYRLIAQHVEYYSDQAVSWFTQPVLTTFDKDKIPTWSVKADKAKLTNDRMLYLYGHVEVNALVPDSQLRRITTDNAQINLVTQDVTSEDLVTLYGTTFNSSGLKMRGNLRSKNAELIEKVRTSYEIQNKQTQP |  |  | binds

Source: paper PMC6532066 (Nature, 2019)
